According to IntAct's records for PubMed 23933751:

B1: F-box only protein 7 (Homo sapiens), Q9Y3I1 (parent)
chain: MRLRVRLLKRTWPLEVPETEPTLGHLRSHLRQSLLCTWGYSSNTRFTITLNYKDPLTGDEETLASYGIVSGDLICLILQDDIPAPNIPSSTDSEHSSLQNNEQPSLATSSNQTSMQDEQPSDSFQGQAAQSGVWNDDSMLGPSQNFEAESIQDNAHMAEGTGFYPSEPMLCSESVEGQVPHSLETLYQSADCSDANDALIVLIHLLMLESGYIPQGTEAKALSMPEKWKLSGVYKLQYMHPLCEGSSATLTCVPLGNLIVVNATLKINNEIRSVKRLQLLPESFICKEKLGENVANIYKDLQKLSRLFKDQLVYPLLAFTRQALNLPDVFGLVVLPLELKLRIFRLLDVRSVLSLSAVCRDLFTASNDPLLWRFLYLRDFRDNTVRVQDTDWKELYRKRHIQRKESPKGRFVMLLPSSTHTIPFYPNPLHPRPFPSSRLPPGIIGGEYDQRPTLPYVGDPISSLIPGPGETPSQFPPLRPRFDPVGPLPGPNPILPGRGGPNDRFPFRPSRGRPTDGRLSFM

Variants of: B1
Details: with prkn_human PRKN

Variant	effect of a mutation on the interaction
MRLRVRLLKRTWPLEVPETEPMLGHLRSHLRQSLLCTWGYSSNTRFTITLNYKDPLTGDEETLASYGIVSGDLICLILQDDIPAPNIPSSTDSEHSSLQNNEQPSLATSSNQTSMQDEQPSDSFQGQAAQSGVWNDDSMLGPSQNFEAESIQDNAHMAEGTGFYPSEPMLCSESVEGQVPHSLETLYQSADCSDANDALIVLIHLLMLESGYIPQGTEAKALSMPEKWKLSGVYKLQYMHPLCEGSSATLTCVPLGNLIVVNATLKINNEIRSVKRLQLLPESFICKEKLGENVANIYKDLQKLSRLFKDQLVYPLLAFTRQALNLPDVFGLVVLPLELKLRIFRLLDVRSVLSLSAVCRDLFTASNDPLLWRFLYLRDFRDNTVRVQDTDWKELYRKRHIQRKESPKGRFVMLLPSSTHTIPFYPNPLHPRPFPSSRLPPGIIGGEYDQRPTLPYVGDPISSLIPGPGETPSQFPPLRPRFDPVGPLPGPNPILPGRGGPNDRFPFRPSRGRPTDGRLSFM [T22M]	disrupting interaction
